From PMC8131915 (The Journal of Biological Chemistry, 2021) come the findings set out here.

What is called Kd is the concentration at which binding is half-saturated.

The target of series [1] is transcription-associated protein 1 (Tra1) (S. cerevisiae (endogenous), UniProt P38811 1-3744). Briefly: cross-linking.
Series [2] deals with SAGA complex (Spt7-TAP purified) (Saccharomyces cerevisiae, UniProt P35177;P38915;P38811;P50875;P06844;Q12060;P38129;P53040;Q05027;Q12030;Q03761;Q03 …). Briefly: fluorescence polarization. Background: In fluorescence polarisation assays a small probe gives low polarisation when free and higher when bound to something large.
Series [3] deals with SAGA complex (Spt7-TAP purified);TBP (Saccharomyces cerevisiae;Saccharomyces …, UniProt P35177;P38915;P38811;P50875;P06844;Q12060;P38129;P53040;Q05027;Q12030;Q03761;Q03 …, |). Briefly: EMSA. For orientation: Mobility shift assays separate free from complexed probe on a gel.

transcription-associated protein 1 (Tra1), sequence (P38811 whole entry): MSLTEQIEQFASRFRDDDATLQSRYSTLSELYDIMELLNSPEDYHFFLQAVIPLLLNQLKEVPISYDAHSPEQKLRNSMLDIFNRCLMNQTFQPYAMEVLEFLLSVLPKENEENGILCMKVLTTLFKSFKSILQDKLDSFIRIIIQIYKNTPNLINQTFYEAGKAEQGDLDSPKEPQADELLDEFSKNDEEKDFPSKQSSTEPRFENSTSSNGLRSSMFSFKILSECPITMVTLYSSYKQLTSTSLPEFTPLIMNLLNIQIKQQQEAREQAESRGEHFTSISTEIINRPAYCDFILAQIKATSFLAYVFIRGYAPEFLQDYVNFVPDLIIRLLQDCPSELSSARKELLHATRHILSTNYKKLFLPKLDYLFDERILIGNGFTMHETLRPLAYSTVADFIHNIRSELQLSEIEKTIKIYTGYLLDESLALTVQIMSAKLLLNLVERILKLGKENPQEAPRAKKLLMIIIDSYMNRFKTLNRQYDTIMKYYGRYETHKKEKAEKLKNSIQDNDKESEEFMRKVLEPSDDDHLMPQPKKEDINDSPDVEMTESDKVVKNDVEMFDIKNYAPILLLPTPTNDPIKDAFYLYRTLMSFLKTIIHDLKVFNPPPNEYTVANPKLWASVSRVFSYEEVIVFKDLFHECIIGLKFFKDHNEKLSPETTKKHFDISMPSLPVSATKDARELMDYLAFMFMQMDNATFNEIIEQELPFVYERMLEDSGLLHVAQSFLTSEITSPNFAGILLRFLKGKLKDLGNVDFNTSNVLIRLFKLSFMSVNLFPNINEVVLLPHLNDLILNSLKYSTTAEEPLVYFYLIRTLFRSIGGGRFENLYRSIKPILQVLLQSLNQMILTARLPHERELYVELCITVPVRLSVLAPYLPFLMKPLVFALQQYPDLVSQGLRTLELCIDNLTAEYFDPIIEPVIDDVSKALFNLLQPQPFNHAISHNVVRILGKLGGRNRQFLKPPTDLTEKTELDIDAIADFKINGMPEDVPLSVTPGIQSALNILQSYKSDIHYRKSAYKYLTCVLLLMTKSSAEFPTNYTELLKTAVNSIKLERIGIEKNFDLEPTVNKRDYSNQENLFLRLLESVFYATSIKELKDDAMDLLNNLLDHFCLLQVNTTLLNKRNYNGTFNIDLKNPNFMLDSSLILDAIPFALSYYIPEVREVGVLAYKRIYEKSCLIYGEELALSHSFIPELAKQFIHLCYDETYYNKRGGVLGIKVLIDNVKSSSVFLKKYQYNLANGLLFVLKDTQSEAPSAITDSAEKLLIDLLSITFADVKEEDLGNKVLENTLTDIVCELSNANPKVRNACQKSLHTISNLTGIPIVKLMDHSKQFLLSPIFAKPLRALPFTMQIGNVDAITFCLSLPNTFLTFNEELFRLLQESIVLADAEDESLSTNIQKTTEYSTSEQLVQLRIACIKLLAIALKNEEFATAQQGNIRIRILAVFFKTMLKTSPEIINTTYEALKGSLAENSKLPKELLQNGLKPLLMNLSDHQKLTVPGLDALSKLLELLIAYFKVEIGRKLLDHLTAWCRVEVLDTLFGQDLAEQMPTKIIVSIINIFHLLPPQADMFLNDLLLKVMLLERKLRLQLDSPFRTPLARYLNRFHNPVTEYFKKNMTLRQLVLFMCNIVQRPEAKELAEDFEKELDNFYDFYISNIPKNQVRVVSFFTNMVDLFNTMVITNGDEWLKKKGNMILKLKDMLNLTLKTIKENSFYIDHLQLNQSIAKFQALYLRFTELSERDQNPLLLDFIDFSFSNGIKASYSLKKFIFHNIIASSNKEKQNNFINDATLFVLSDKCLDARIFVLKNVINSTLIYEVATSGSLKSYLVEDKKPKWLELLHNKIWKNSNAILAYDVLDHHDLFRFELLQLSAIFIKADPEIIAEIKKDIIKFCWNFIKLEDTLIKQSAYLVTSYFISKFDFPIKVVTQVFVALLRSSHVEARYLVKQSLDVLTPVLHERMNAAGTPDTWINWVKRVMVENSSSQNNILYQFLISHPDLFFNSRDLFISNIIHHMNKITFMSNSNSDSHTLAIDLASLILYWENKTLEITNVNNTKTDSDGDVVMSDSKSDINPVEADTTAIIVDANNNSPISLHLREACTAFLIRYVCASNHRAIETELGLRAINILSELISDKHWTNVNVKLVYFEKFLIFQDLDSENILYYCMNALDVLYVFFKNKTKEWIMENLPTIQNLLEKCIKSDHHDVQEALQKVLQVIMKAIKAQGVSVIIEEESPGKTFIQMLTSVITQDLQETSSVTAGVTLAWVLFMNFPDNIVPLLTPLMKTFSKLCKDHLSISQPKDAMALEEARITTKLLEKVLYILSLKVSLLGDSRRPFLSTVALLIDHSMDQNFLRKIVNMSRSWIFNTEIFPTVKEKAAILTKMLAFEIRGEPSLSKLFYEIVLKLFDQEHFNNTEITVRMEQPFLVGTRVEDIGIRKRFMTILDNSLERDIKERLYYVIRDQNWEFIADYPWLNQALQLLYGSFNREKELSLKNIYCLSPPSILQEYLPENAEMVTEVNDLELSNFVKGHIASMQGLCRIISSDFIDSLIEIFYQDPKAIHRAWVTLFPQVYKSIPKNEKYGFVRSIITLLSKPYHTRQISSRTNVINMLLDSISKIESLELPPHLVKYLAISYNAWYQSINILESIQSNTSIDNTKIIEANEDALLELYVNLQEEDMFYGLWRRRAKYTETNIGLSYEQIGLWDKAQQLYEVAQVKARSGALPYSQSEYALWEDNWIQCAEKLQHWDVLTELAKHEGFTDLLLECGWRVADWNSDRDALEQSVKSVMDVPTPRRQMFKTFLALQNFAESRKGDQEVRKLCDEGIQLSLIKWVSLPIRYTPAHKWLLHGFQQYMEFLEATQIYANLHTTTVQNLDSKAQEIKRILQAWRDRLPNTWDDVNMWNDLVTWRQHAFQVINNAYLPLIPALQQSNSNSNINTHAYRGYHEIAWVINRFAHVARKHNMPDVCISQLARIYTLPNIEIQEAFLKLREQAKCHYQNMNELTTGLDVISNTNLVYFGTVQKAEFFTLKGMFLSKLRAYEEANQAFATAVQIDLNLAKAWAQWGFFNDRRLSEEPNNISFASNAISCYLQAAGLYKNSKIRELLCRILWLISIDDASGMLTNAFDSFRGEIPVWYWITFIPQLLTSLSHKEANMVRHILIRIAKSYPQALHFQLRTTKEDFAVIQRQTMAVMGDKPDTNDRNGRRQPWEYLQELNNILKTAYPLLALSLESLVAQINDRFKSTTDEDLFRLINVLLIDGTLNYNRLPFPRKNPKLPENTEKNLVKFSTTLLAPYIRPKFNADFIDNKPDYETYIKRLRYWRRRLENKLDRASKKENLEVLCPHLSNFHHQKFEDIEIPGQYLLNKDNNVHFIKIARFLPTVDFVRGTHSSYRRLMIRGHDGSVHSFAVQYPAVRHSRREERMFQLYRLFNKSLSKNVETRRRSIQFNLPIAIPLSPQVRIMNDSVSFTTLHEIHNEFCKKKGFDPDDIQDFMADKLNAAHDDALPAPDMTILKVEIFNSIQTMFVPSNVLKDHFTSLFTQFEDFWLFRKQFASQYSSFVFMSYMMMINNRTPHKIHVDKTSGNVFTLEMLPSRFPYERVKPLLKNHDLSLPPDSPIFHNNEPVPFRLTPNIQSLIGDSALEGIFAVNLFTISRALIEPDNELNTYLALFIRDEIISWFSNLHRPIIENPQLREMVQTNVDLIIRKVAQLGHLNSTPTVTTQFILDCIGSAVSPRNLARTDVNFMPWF

B1: Ada1 (natural protein, S. cerevisiae (endogenous), UniProt Q12060 1-488, looked up)
chain: MSAIQSPAPKPLQPTYPAASPASTNAYMKPGLIGSPAVSNHTEPNNGNNETAEPQGPNQRIDLGAMIEELTSLLGKESWTKYAQIISLFILGKLSRKELSNELELVFSPSAASLEKSNTNHHHSLVRLHNQLLLGIFANSLRENPLGRNGNESSWGFGNGSNNPNNKLKRINKHNSQIEVYKKIVMSLPLNDRNRLKMITKEAGKRGFIFCSVFQARLNNIPKIPIVTNPESLKRVKSNNLKTPLEWSQDIMNGFNVPLASESHSLPDTDSFYLRMVGIAREHGLVGTVDARCVELISLALDQYLKNIIEFTIDTVRYRRKKYSDYYDLNESGLYKSVSEMAADKRDAKIKQLDDDKNEDECADEAKSINNGNNSSKDDIGDISMSSITKAGEAVNEELHENRTISLTNEDIYDSLSIFPNLVEPSGSYYALTNLGLVNDDELVDMKSNIDDLPDFLNEKPTFTPLDERNVGTRHELNWLIKGILTED
B1: the binding result in series [1] is “binds”.

B2: 75-mer ssDNA, HIS4 promoter (ssDNA)
DNA: GCAGGAGGACGTAGGGTAGGACTATGAACAGTAGTATACTGTGTATATAATAGATATGGAACGTTATATTCACCT
Molecule B2 returned a dissociation constant Kd in series [2] of 15 ± 11 nM.

B3: 75-mer dsDNA, HIS4 TATA-box promoter (dsDNA)
DNA 1: GCAGGAGGACGTAGGGTAGGACTATGAACAGTAGTATACTGTGTATATAATAGATATGGAACGTTATATTCACCT
DNA 2: AGGTGAATATAACGTTCCATATCTATTATATACACAGTATACTACTGTTCATAGTCCTACCCTACGTCCTCCTGC
As for B3, in series [3], the binding result is “binds”.

B4: Taf12 (natural protein, S. cerevisiae (endogenous), UniProt Q03761 1-539, looked up)
chain: MSSNPENSGVNANNNTGTGNADAITGAQQNMVLQPRQLQEMAAKFRTLLTEARNVGETTPRGKELMFQAAKIKQVYDALTLNRRRQQAAQAYNNTSNSNSSNPASIPTENVPNSSQQQQQQQQQTRNNSNKFSNMIKQVLTPEENQEYEKLWQNFQVRHTSIKEKETYLKQNIDRLEQEINKQTDEGPKQQLQEKKIELLNDWKVLKIEYTKLFNNYQNSKKTFYVECARHNPALHKFLQESTQQQRVQQQRVQQQQQQQQQQQQQQQQQQQQQQQRQGQNQRKISSSNSTEIPSVTGPDALKSQQQQQNTITATNNPRGNVNTSQTEQSKAKVTNVNATASMLNNISSSKSAIFKQTEPAIPISENISTKTPAPVAYRSNRPTITGGSAMNASALNTPATTKLPPYEMDTQRVMSKRKLRELVKTVGIDEGDGETVIDGDVEELLLDLADDFVTNVTAFSCRLAKHRKSDNLEARDIQLHLERNWNIRIPGYSADEIRSTRKWNPSQNYNQKLQSITSDKVAAAKNNGNNVASLNTKK
In the case of B4, in series [1], the binding result is reported as “binds”.
